{
  "source": "patent US20060063715A1",
  "target": "TAG-72 antigen (tumor-associated glycoprotein 72) (human)",
  "experiment": "competition RIA against 125I-labeled CC49 IgG (competitor), TAG-72 in a human breast carcinoma extract",
  "data": [
    {"substance": "CC49/212 single-chain antigen-binding protein (monomer) (scFv)", "values": [
      {"measurement": "fold higher protein concentration needed to displace the labeled CC49 IgG (against unlabeled CC49 IgG and bivalent CC49/212)", "value": 10, "unit": "fold"}
    ]}
  ]
}
